Experimental findings from patent US20200392227A1 (LYVGEN BIOPHARMA, published 2020) are described below.

Like-named read-outs stand apart in the source and are kept apart here.

Test [1] deals with T1, human FcRIIIA-F158 protein (MednaBio, E1036) (human, UniProt P08637 17-208).
T1 construct: Bought; also called FcγRIIIA(F)
As to the kind of experiment: BLI. In outline: (§1)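 On an Octet Red96 System, anti-penta-HIS biosensors loaded with commercial human Fc receptor proteins were dipped into test IgG diluted 1:3 over 8 points from 300 nM. Fcγ receptor runs used pH 7.2 and FcRn runs used pH 6. Global fitting of these biolayer interferometry data gave the values for Kd, kon and koff, using a 1:1 binding model.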

Test [2] has as its target T2, human FcRIIB/C protein (MednaBio, E1034) (human, UniProt P31994 43-217, limits assumed).
T2 construct: Bought as FcRIIB/C; also called FcγRIIB; CD32B
T2 sequence (looked up): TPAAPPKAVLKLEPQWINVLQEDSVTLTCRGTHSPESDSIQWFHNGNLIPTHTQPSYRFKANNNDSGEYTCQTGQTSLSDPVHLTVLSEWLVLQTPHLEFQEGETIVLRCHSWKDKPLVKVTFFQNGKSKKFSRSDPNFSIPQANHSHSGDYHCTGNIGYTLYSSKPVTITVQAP
Nature of the test: BLI. In outline: as §1
Background: BLI is a label-free optical method that tracks binding on a fibre tip over time.

Test [3] deals with T3, human FcRIIIB protein (MednaBio, E1037) (human, UniProt O75015 17-200).
T3 construct: Bought; also called FcγRIIIB; FcgRIIIB
T3 sequence (O75015 17-200 limits assumed): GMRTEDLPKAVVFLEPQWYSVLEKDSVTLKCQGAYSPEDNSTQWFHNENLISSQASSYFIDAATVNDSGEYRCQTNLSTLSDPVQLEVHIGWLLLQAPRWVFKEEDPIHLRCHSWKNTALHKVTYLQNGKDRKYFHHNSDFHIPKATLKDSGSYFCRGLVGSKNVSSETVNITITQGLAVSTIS
Nature of the test: BLI. In outline:
as §1

For test [4], the target named is T4, human FcRI protein (MednaBio, E1031) (human, UniProt P12314 16-288, limits assumed).
T4 construct: Bought; loaded on anti-penta-HIS biosensors; also called FcγRI
T4 sequence (P12314 16-288 limits assumed): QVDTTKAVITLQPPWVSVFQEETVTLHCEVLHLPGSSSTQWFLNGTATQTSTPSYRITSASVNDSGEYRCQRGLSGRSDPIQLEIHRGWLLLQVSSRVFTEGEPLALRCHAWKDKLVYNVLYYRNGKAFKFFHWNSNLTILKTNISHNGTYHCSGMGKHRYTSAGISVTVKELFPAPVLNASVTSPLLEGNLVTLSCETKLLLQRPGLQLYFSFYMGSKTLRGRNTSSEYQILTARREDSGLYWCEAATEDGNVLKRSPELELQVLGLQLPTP
As to the kind of experiment: BLI. The gist of the method: as §1

Test [5] concerns the target T5, human FcRn protein (MednaBio, E1032) (human, UniProt P55899 24-297; P61769 21-119).
T5 construct: Bought; assays at pH 6
Nature of the test: BLI. The gist of the method:
as §1

For test [6], the target named is T6, human FcRIIA protein (MednaBio, E1033) (human, UniProt P12318 34-218, limits assumed).
T6 construct: Bought; also called FcγRIIA
T6 sequence (looked up): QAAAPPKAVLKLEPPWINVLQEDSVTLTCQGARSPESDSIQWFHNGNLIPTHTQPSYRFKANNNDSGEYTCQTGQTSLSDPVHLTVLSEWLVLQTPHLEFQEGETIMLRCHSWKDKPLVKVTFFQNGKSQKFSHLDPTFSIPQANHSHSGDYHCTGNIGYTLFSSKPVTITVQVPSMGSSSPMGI
As to the kind of experiment: BLI. In outline: as §1

In test [7] the target is T7, human FcRIIIA-V158 protein (MednaBio, E1035) (human, UniProt P08637 17-208).
T7 construct: Bought; also called FcγRIIIA(V); FcgRIIIA(V)
T7 sequence (P08637 17-208 F176V): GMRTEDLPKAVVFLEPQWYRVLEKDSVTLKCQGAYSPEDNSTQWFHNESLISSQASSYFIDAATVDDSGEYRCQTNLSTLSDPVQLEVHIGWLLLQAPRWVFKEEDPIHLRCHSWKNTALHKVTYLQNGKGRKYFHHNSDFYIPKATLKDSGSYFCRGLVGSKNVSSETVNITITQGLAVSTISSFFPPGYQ
As to the kind of experiment: BLI. The gist of the method:
as §1

For test [8], the target named is T8, human FcγRIIA(R131) expressed on CHO cells (human, UniProt P12318 34-317).
T8 construct: whole, on cells
T8 sequence (looked up): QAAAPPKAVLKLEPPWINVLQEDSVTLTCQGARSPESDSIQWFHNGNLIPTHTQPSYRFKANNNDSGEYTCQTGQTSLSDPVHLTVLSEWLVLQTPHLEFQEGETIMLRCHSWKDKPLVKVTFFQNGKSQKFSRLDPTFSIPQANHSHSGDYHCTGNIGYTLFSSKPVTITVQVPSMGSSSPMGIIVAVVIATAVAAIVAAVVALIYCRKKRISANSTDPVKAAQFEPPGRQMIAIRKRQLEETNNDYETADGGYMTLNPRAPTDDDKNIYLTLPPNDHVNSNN
As to the kind of experiment: FACS, CHO cells expressing FcγRIIA(R131). The procedure: FIGS. 1A-1W are charts showing binding activity of various IgG variants as indicated to different types of Fcγ receptors expressed on CHO-K1 cells at the various concentrations as indicated. The concentrations of each IgG variant, from left to right, are 0 μg/ml, 0.3 μg/ml, 1 μg/ml, 3 μg/ml, and 10 μg/ml in FIGS. 1A-1C, 1E-J, 1L-1M, 1P-1R, and 1T-1V. For FIGS. 1D, 1K, 10, 1S, and 1w the bars, from left to right, correspond to the following concentrations of IgG variant: 0.3 μg/ml, 1 μg/ml, 3 μg/ml, and 10 μg/ml.
(§2) For FACS analysis of the IgG mutants' binding to different FcγRs, FcγR overexpressing CHO cells were harvested using trypsin-EDTA and were suspended in cold staining buffer (3% BSA in PBS). Test IgG mutants, which were diluted in staining buffer, were added into the cells. The mixture was incubated 4° C. for 2 hours, and then washed twice with cold staining buffer and re-suspended in PE-labeled anti-human IgG followed by incubation at 4° C. for 2 hours. The mixture was washed twice with staining buffer and re-suspended in 2% PFA in PBS for FACS.
(A flow cytometer gives signals particle by particle.)

Test [9] deals with T1, human FcRIIIA-F158 protein (MednaBio, …). Nature of the test: BLI. The source holds these as a separate data set.
Test [10] deals with T2, human FcRIIB/C protein (MednaBio, E1034). Nature of the test: BLI. The source holds these as a separate data set.
Test [11] concerns the target T3, human FcRIIIB protein (MednaBio, E1037). Nature of the test: BLI. This is another data set of the same source.
The target in test [12] is T4, human FcRI protein (MednaBio, E1031). As to the kind of experiment: BLI. The source holds these as a separate data set.
The target in test [13] is T5, human FcRn protein (MednaBio, E1032). Nature of the test: BLI. This is another data set of the same source.
The target of test [14] is T6, human FcRIIA protein (MednaBio, E1033). As to the kind of experiment: BLI. The source holds these as a separate data set.
In test [15] the target is T7, human FcRIIIA-V158 protein (MednaBio, …). Nature of the test: BLI. The source holds these as a separate data set.
Test [16] addresses T9, human FcγRIIC expressed on CHO cells (human, UniProt P31995 43-323).
T9 construct: whole, on cells
T9 sequence (looked up): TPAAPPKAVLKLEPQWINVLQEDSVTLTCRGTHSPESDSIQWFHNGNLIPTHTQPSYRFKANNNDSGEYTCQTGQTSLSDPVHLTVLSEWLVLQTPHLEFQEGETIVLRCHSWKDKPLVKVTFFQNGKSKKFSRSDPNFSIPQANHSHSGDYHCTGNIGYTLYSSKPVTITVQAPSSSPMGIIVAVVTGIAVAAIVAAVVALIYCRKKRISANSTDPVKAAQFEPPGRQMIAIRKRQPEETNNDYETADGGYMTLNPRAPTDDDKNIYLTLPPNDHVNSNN
Nature of the test: FACS, CHO cells expressing FcγRIIC.

In test [17] the target is T10, human FcγRIIA(H131) expressed on CHO cells (human, UniProt P12318 34-317).
T10 construct: whole, on cells
T10 sequence (looked up): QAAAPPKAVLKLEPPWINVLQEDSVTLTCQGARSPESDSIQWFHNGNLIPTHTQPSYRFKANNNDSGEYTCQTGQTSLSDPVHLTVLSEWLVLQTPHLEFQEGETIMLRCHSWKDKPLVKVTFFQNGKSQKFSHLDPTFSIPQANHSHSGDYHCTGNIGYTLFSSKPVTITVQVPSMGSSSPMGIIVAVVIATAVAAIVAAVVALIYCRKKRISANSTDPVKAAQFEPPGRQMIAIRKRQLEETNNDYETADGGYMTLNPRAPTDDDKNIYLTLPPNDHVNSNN
Nature of the test: FACS, CHO cells expressing FcγRIIA(H131).

The target of test [18] is T11, human FcγRIIB expressed on CHO cells (human, UniProt P31994 43-310).
T11 construct: whole, on cells; also called CD32B
T11 sequence (looked up): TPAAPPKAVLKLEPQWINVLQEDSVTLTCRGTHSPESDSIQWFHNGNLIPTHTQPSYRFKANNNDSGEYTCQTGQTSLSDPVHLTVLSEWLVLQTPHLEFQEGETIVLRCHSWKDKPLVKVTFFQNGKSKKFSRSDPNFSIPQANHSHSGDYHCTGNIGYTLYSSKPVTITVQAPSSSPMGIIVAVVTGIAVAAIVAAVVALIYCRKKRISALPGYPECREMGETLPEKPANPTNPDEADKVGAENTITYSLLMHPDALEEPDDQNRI
As to the kind of experiment: FACS, CHO cells expressing FcγRIIB. The procedure:
as §2

T5 sequence (P55899 24-297 limits assumed, form in doubt, chain 1 of 2): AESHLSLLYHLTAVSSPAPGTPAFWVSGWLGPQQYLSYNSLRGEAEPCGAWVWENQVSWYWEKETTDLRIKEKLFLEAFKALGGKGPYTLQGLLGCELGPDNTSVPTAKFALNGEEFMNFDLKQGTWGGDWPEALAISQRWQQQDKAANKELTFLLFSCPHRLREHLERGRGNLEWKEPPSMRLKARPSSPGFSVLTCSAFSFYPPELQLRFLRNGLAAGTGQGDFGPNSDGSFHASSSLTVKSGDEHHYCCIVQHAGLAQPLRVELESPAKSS
T5 sequence (P61769 21-119 limits assumed, form in doubt, chain 2 of 2): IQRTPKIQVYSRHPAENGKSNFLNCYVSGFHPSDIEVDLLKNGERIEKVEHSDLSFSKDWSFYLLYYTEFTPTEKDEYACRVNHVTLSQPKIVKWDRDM
T1 sequence (P08637 17-208 limits assumed): as the sequence (P08637 17-208 F176V) above, with V160F counted along it

B1: anti-CD137 IgG1 with Fc variant G1mAA (antibody)
heavy: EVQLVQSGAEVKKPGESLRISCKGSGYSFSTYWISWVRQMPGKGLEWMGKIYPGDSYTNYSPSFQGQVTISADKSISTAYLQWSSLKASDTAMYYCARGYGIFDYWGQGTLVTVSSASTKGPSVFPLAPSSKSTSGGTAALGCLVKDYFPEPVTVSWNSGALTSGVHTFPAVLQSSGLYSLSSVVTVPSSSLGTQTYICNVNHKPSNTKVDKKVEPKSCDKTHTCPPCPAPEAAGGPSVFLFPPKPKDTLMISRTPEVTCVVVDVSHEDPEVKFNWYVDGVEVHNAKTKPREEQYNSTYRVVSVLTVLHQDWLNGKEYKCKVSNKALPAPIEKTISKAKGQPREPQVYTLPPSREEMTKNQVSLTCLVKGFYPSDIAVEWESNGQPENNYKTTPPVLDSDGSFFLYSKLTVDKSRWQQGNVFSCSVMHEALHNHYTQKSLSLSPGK
light: SYELTQPPSVSVSPGQTASITCSGDNIGDQYAHWYQQKPGQSPVLVIYQDKNRPSGIPERFSGSNSGNTATLTISGTQAMDEADYYCATYTGFGSLAVFGGGTKLTVLGQPKAAPSVTLFPPSSEELQANKATLVCLISDFYPGAVTVAWKADSSPVKAGVETTTPSKQSNNKYAASSYLSLTPEQWKSHRSYSCQVTHEGSTVEKTVAPTECS
notes: copies: 2 + 2
Broadly, the Kd is the free concentration of one partner at which half of the binding sites on the other are occupied at equilibrium, for simple one-to-one binding. Read a low Kd as higher affinity. What is called koff is the first-order rate constant of dissociation. What is called kon is the rate constant with which the complex forms. Low readings indicate slow association, high ones fast association. In the case of B1, the Kd turned out to be 1500 nM in test [1]; 656 nM in test [2]; 556 nM in [3]; 235 nM in [4]; 18.8 nM in test [5]; 800 nM in test [6]. Besides, in [7], the Kd is 456 nM. The koff worked out at 0.175 s⁻¹ in [1]; 0.156 s⁻¹ in test [2]; 0.144 s⁻¹ in test [3]; 0.0337 s⁻¹ in [4]; 0.015 s⁻¹ in test [5]; 0.247 s⁻¹ in test [6]. In test [7], this molecule showed an off-rate (koff) of 0.042 s⁻¹. Besides, the kon came out at 116000 M⁻¹ s⁻¹ in test [1]; 238000 M⁻¹ s⁻¹ in test [2]; 258000 M⁻¹ s⁻¹ in [3]; 144000 M⁻¹ s⁻¹ in [4]; 803000 M⁻¹ s⁻¹ in test [5]; 310000 M⁻¹ s⁻¹ in test [6]. The same molecule registered a kon in [7] of 92300 M⁻¹ s⁻¹. The binding result in test [8] is given as “no binding (tested: 10 ug/ml)”.

B2: anti-CD137 IgG1 with Fc variant G1m2 (antibody)
heavy: EVQLVQSGAEVKKPGESLRISCKGSGYSFSTYWISWVRQMPGKGLEWMGKIYPGDSYTNYSPSFQGQVTISADKSISTAYLQWSSLKASDTAMYYCARGYGIFDYWGQGTLVTVSSASTKGPSVFPLAPSSKSTSGGTAALGCLVKDYFPEPVTVSWNSGALTSGVHTFPAVLQSSGLYSLSSVVTVPSSSLGTQTYICNVNHKPSNTKVDKKVEPKSCDKTHTCPPCPAPELLGPSVFLFPPKPKDTLMISRTPEVTCVVVDVSHEDPEVKFNWYVDGVEVHNAKTKPREEQYNSTYRVVSVLTVLHQDWLNGKEYKCKVSNKALPAPIEKTISKAKGQPREPQVYTLPPSREEMTKNQVSLTCLVKGFYPSDIAVEWESNGQPENNYKTTPPVLDSDGSFFLYSKLTVDKSRWQQGNVFSCSVMHEALHNHYTQKSLSLSPGK
light: SYELTQPPSVSVSPGQTASITCSGDNIGDQYAHWYQQKPGQSPVLVIYQDKNRPSGIPERFSGSNSGNTATLTISGTQAMDEADYYCATYTGFGSLAVFGGGTKLTVLGQPKAAPSVTLFPPSSEELQANKATLVCLISDFYPGAVTVAWKADSSPVKAGVETTTPSKQSNNKYAASSYLSLTPEQWKSHRSYSCQVTHEGSTVEKTVAPTECS
notes: copies: 2 + 2
For the molecule B2, the binding result in test [9], in test [10], in test [11], in [12], in [14] and in [15] was “no binding (tested: 300 nM)” throughout. The binding result in [16], in test [17] and in [18] was “no binding (tested: 10 ug/ml)” in each case. In test [13], this molecule had a Kd of 13 nM. Further, in [13], the koff was 0.0093 s⁻¹. This molecule also yielded a kon in [13] of 710000 M⁻¹ s⁻¹.
